According to patent US20180325979A1 (UNIVERSITY OF SOUTHAMPTON, published 2018):

Target: T1, HLA-Cw*0102 on the HLA-Cw*0102-positive cell line L721.174
T1 construct: whole, on cells
Assay: MHC class I stabilisation on L721.174 cells, flow cytometry

| Binder | binding result |
| --- | --- |
| IVDLMCHATF (also called Dengue virus peptide) [peptide IVDLMCHATF (SEQ ID NO: 1)] | binds |
| LNPSVAATL [peptide LNPSVAATL (SEQ ID NO: 5)] | binds |
